From patent publication US20250018052A1 (CHIA TAI TIANQING PHARMACEUTICAL GROUP, published 2025)

B1: Patritumab-eribulin-D2 (antibody, human IgG1, kappa, V domains shown)
VH: QVQLQQWGAGLLKPSETLSLTCAVYGGSFSGYYWSWIRQPPGKGLEWIGEINHSGSTNYNPSLKSRVTISVETSKNQFSLKLSSVTAADTAVYYCARDKWTWYFDLWGRGTLVTVSS
VL: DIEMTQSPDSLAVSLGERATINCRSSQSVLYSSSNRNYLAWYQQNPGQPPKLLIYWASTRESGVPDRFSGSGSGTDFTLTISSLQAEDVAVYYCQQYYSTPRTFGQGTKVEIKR
modifications: MC-GGFG-eribulin (compound III-1) conjugated to cysteine sulfhydryls freed by TCEP reduction of the antibody's disulfide bonds; positions not given; average DAR 2.6 per antibody
notes: also called patritumab-eribulin conjugate with a DAR of 2.6
B2: Patritumab-eribulin-D8 (antibody, human IgG1, kappa, V domains shown)
VH: B1 VH
VL: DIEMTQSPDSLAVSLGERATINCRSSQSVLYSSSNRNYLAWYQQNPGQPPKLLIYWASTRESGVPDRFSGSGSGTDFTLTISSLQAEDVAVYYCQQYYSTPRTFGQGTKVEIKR
modifications: MC-GGFG-eribulin (compound III-1) conjugated to cysteine sulfhydryls freed by TCEP reduction of the antibody's disulfide bonds; positions not given; average DAR 7.6 per antibody
notes: also called patritumab-eribulin conjugate with a DAR of 7.6
B3: Patritumab-DDDXd-D8 (antibody, human IgG1, kappa, V domains shown)
VH: B1 VH
VL: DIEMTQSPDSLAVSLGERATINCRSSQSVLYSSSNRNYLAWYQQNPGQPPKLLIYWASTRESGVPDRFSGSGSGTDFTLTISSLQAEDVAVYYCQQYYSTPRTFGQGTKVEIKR
modifications: MC-GGFG-DDDXd (deuterated MC-GGFG-DXd) conjugated to cysteine sulfhydryls freed by TCEP reduction of the antibody's disulfide bonds; positions not given; average DAR 7.9 per antibody
notes: also called patritumab-DDDXd conjugate with a DAR of 7.9; patritumab-DDDX-D8
B4: Patritumab-eribulin-D4 (antibody, human IgG1, kappa, V domains shown)
VH: B1 VH
VL: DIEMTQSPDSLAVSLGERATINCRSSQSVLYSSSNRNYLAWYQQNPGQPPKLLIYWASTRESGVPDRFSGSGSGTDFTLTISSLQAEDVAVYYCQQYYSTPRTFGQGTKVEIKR
modifications: MC-GGFG-eribulin (compound III-1) conjugated to cysteine sulfhydryls freed by TCEP reduction of the antibody's disulfide bonds; positions not given; average DAR 4.0-4.2 per antibody
notes: also called patritumab-eribulin conjugate with DAR of 4.0-4.2
B5: Patritumab (antibody, human IgG1, kappa, V domains shown)
VH: B1 VH
VL: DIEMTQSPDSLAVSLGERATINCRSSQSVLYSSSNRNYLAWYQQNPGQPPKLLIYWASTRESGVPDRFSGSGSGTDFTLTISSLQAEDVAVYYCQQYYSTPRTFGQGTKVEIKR
notes: Naked antibody expressed in Expi-CHO cells and purified by Protein A; also called fully human anti-HER3 monoclonal antibody

The binders below were run against T1, HER3 (human epidermal growth factor receptor 3) (human, UniProt P21860 20-1342) (assay: cell-based or functional assay).

Row | Binder | Endocytosis EC50 (nM), BT474 cells, pHrodo Green-labelled anti-human IgG Fc, FACS | Endocytosis EC50 (nM), MCF-7 cells, pHrodo Green-labelled anti-human IgG Fc, FACS | Endocytosis EC50 (nM), NCI-N87 cells, pHrodo Green-labelled anti-human IgG Fc, FACS
1 | B1 | 1.07 nM | 0.58 nM | 4.5 nM
2 | B2 | 0.931 nM | 1.25 nM | 9.46 nM
3 | B3 | 0.859 nM | 0.869 nM | 56.8 nM
4 | B4 | 0.962 nM | 0.797 nM | 4.72 nM
5 | B5 | 0.821 nM | 0.509 nM | 

Each binder was assayed against T1, HER3 (human epidermal growth factor …) (assay: FACS (MFI) on MDA-MB-468 cells, medium HER3 expression; anti-human IgG-Fc-PE secondary).
Description: (§1) The cells were incubated at 4° C. for 60 min and centrifuged at 1000 rpm for 5 min. […] The cells were washed 3 times with pre-cooled PBS (pH 7.4) and resuspended in 100 μL of PBS (pH 7.4), and then the fluorescence signals were analyzed and detected using a flow cytometer (Sartorius, iQUE). […] Data were analyzed using GraphPad Prism5.

Row | Binder | EC50
6 | B1 | 1.56 nM
7 | B2 | 3.31 nM
8 | B3 | 1.7 nM
9 | B4 | 1.67 nM
10 | B5 | 1.3 nM

These binders were tested against T1, HER3 (human epidermal growth factor …) (assay: FACS (MFI) on BT474 cells, high HER3 expression; anti-human IgG-Fc-PE secondary).
Description: as §1

Row | Binder | EC50
11 | B1 | 3.05 nM
12 | B2 | 2.85 nM
13 | B3 | 2.68 nM
14 | B4 | 2.78 nM
15 | B5 | 3.02 nM

What follows are binders tested against T1, HER3 (human epidermal growth factor …) (assay: FACS (MFI) on SW620 cells, low HER3 expression; anti-human IgG-Fc-PE secondary).
Description: as §1

Row | Binder | EC50
16 | B1 | 1.89 nM
17 | B2 | 1.74 nM
18 | B3 | 1.37 nM
19 | B4 | 1.28 nM
20 | B5 | 1.47 nM

Each binder was assayed against T1, HER3 (human epidermal growth factor …) (assay: FACS (MFI) on MCF-7 cells, high HER3 expression; anti-human IgG-Fc-PE secondary).
Description: as §1

Row | Binder | EC50
21 | B1 | 0.855 nM
22 | B2 | 1.02 nM
23 | B3 | 0.77 nM
24 | B4 | 0.932 nM
25 | B5 | 0.807 nM

These binders were tested against T1, HER3 (human epidermal growth factor …) (assay: FACS (MFI) on JIMT-1 cells, medium HER3 expression; anti-human IgG-Fc-PE secondary).
Description: as §1

Row | Binder | EC50
26 | B1 | 1.59 nM
27 | B2 | 1.73 nM
28 | B3 | 1.3 nM
29 | B4 | 1.04 nM
30 | B5 | 1.51 nM

What follows are binders tested against T1, HER3 (human epidermal growth factor …) (assay: FACS (MFI) on HCC1569 cells, high HER3 expression; anti-human IgG-Fc-PE secondary).
Description: as §1

Row | Binder | EC50
31 | B1 | 1.42 nM
32 | B2 | 1.49 nM
33 | B3 | 1.16 nM
34 | B4 | 1.49 nM
